This is an account of results in patent US20040110711A1.

The test deals with mouse full-length TrkB (TrkB.FL) (mouse). Nature of the test: cell-based or functional assay.

The substance “BDNF (brain derived neurotrophic factor), supplied by Regeneron Pharmaceuticals (from UniProt P23560 129-247) (ligand)” gave a TrkB phosphorylation in Ts16 neurons against euploid neurons of 33 % less and a neuron survival 36 hours after B27 withdrawal of 65%.
